experiment: soluble on expression in E. coli; label from the status in PepcDB or PDB records

Sequence	soluble on expression in E. coli
MAHHHHHHMYAIADTDDILIRSNPCRLSVNGVHISVCNEDVVGDMRDRMVERWPTADGSLRRVVEALVNGRLYVPLYSLPVATADLKHLPHLRMDYVPSQNELLEIKPAAAALASSTATKGDRRGNADGSDATTSTSGASSSRGWETVFSVAEQPSTDMAAWLQHKVKRAKLEDAAGDNEEGDAASAPGGPVTPSTPTASSKTEYLPHIMFLPSTRPQFATVTHQSEEVDGADIDSAESASGVLVVNQEVWSTRSSPKFELRVAEVTIPNTDLVLRRGATSTNGVTCGVLHIYSA	soluble
MKNLEKCILCGSHNIVPHWKNVRSYNVSKCLDCSFLFLHEIIDDHELENYYSQSYFMASYAKTENNLIDAANNPKITAEAKEYANLIKLHHPEAHNVGEIGCSWGYLLYNLQNFGYSAKGFELSKTTAEMGSKQLGINITSGFFETQYNQFDVLILRHVLEHVPDPQDLLEKIYDSIKKDGLFILEGPNLDSISSRLFGKNVSWVSPPDHISFPNFISLIMACEKLGFTCIHKSSRRGRGISIFHQALLNSVGLMFGGKEKAKVNLGGINEKPNNQQLSSLKSAALKIVDFLDFLSSPMQPFLKQALLEEEMLIIFKKLEHHHHHH	not soluble
MAHHHHHHMMDMRQLDVSAVARSAMSCMEAKHMSANVKLYTLGFLTFLASSKSWQPYRMSHPDKVEEQALYEDSELASSFISTKYPAGWQQNASEVLNTKFPGLLGEVTAHLSLGGKDTISALPRRHDGR	not soluble
MSLKREEICRLLADKVNKLKNKENSLSELLPDVRLLYGETPFARTPVMYEPGIIILFSGHKIGYINERVFRYDANEYLLLTVPLPFECETYATSEVPLAGLRLNVDILQLQELLMDEGHHHHHH	not soluble
MKLDIKKDLKNIAWHCTMCGGCCDSPSVSKKDVANIAGFLKIPFDEVVKKYLVNFDGMTGRLKTSKEKCIFLDENNKCKIYRVRPIICRLRPYSVQIKDQNLVLTYDGWFLENCKGLFMGDLDPDEEYYKHAETVLKYLGEEENTPEEFFEKAKKRLKKSKKLEHHHHHH	soluble
MIQLIATPSNALVDEPVSIRATGLPPSQIVTIKATVKDENDNVFQSQAFYKTNEAGEVDLEKTPALGGDYVGVHPMGLFFSLKPKKAFHRLMKKDVMNSPLCICLDLYDSVNWLETVRIPSKASQRVQRWFVGPGVKREQIQEGRVRGALFLPPVEFRASLLASHGFAVLALAYFAYEDLPEKPQEVDLEYFEEAANFLLSHPKIQQPGIGVISTSKGAEIGLAMACYLKQVIATVCINGPTTITIFPLRYQDLVMTPIHPALERIQVHDSGALLFRYTTQYLHNKLNSQNILPVEKAQGKILFIVGENDECLDSKLHAQKAMDRLQRHGRSSGRMLAYPGAGHLIEPPYSPVCFVAWFPVLGQPMCFGGDLMAHAAAQEHSWREIQKFFRKHLLQSGSKL	not soluble
QAVGGKIADDAQKVAGLYAEKKRTNWTQANGVAGKISHKIQSLLGMRDAGSRVQAFVAFMADGKGRPGATMLDLGDGWMRATRVIKGEAALIDFQCDSDGKVVDARHPGRFPVLPQGNEREAFKTVLQELKFRGAETLSKVPVYYVNRNTRGYVIPTHGYVVAGHPNRGRKSGAVLYGVGGDPKRGPVALDEKLLGHLVGRSDSKTSSKLSAPVKAAISALAGASFATREDFYDAYCAVRGDAVDPLERHNEISSIYRLLPLSTMEMWPKKADDYRVARPAAPERDLRAFENLPKDIGRKAQLKKVSNVDSIDLLEAKRQFTLHQLYQDEMLGRNGTGVPSADFKPKVDAQRRDQLVASTPKFQRLPPHTTDKVGNCNTGASSLLQRAVDTYTEKNNLPPEKVTAASIFGIGSSHRLAIWDPLDGSSSNKSSKDR	not soluble
MQIFPYSDDPNKRYHTWNYALRQQFGEKIFKVPIDGGFDCPNRDGTVAKGGCTFCSVSGSGDMIVAPSDPLPLQFQKEIQLMHQKWPTVDQYIVYFQNFTNTHAPVDVIRHRFEQVVNEKGVVGLSIGTRPDCLPDEVVNYLAELNERFYLWVELGLQTTFEETSAAINRAHDYQTYLDGVAKLRKHGIRVCTHLINGLPGETPAMMRENVRRTIQDSDIQGIKLHLLHLMTNTKMMRDYNEGRLQLMSKEAYVSVICDQLEMIPPEIVIHRLTGDAPFETIIGPMWSLKKWEVLNAIDAEMKRRNSYQGKYTVISGKEVFN	not soluble
MTSAWNEEWRRRRLPALAGQEWDLIVVGGGISGAGILREAARRGWRCLLLEQRDFAWGTSSRSSKMVHGGLRYIAKGQWRLTRDSVRERQRLLGEAPGLVEPLSFVMAHYRGGFPGPRLFGGLLSVYDALAGRRNHRFYDAAALRYLAPGLKEQRLLGGTRFFDAVTDDARLVLRVLAEARHDGGEAFNGMRVRELLREGGQVVGLRAEDRESGELFDFRCRALALATGAWADELRQPGGSEHIRPLRGSHLLLPAWRLPVAHAFSFMHATDRRPVFVFPWEGATVVGTTDLDHRDGLGEDARISRAELDYLLAACAQQFPAAAIEARDVLSTWAGVRPVVSSGDDSGKPSDEKREHVLWREPGCVTLAGGKLTTFRPLAVEVLQACAPLLGRTVTDDGAAVFGACEGPLIDGLGSGQRRRLAGRYGRDLVRLKRLVDTLGTDCVGASETLWAELAFAAEAEMVLHLDDLLLRRTRLGLLLPGGGAAYLPRIRALCQARLGWDDPRWEREQQAYLDLWRRHYSLPVLEHHHHHH	not soluble
MGSDKIHHHHHHMHACGDAVLFLPPNPFLDLRPVPHTSWARLPPMIRLAVLSDLHANLEATLAVHADVQRRGIQEIWVLGDLVGKGPRPREVVEWTQAHASRVIQGNWDARVAGATNRPQDLWPRSKLTPAQLAYLAGLPYGIEEQFSGAWWRFVHASSKGLFHRLYPHSSLAEQLEAYMPNPQFGLKVHADALVYADVHETLMLDVEGRPLINTGSVGNPLDSTLPSYLILEFDPHSPAHSATFVRLTYNRDAEIAAAEASGMPFTREYVAELLTGAYQKRRARTGE	not soluble
MGSDKIHHHHHHMLLDTNIFSSFEDYSDISGKLNELSRRLNPKSILLKHPKSIEYLNTLDEDTKRILLSKLAFCDLLNDYPSPINDLEFNTNVGYLKGTNNDLENNLLYAVYTNSVTYLITENRMIHQKSTKLGLKDRVLYLNEALDFFKEFYSIQKRQILPQIKQRPITKVDVDDQIFDSLREEYPEFNNWYNEKAHLGRECWCYIKESGKLGAVLIFNGEDFDVIKTDPLLPEKRRFKICTFKVDQVGYKLGELLLKKAFDYCIDNSITETYLTHFAKSEFDYLVNLITEYGFIDIGTNENGENVFFKDLNPTPNQLMFCDYKDIFKKYYPLFYDGNRVKKLVVPIRPQYHEKLFTDYVKRTSITLNEYFGDFIIEGNTIKKAYISHSPIKNLKKGDILLFYRSEDHKELTSLGVLEEFKTNLTSPEEIINMVGKRTVYSSREIEEIVKKPASVMIFTMHLHLKSPIPLTVLKENNILKGPPQTITEITHGAYEKIRDLGGINDNLTIH	not soluble
MGSDKIHHHHHHMSDIDFAKKMSFQRHFSRPKTAESEYAIVRQFESDRGRIINSAAIRRLQQKTQVFPLERNAAVRSRLTHSMEVQQVGRYIAKEILHRLQADERLASLGLADRETPFESLVEMACLMHDIGNPPFGHFGESAINQWFRKLLDSHYLDNESPERVDDCKVPTLRMQQDGLDDLRGQIRQDLSHFEGNAQAIRLVHTLLKLNLTYGQVACILKYTRPAYWHGELPADYNYLMKKPGYYLSEEAFVAKLREELDMGEFHRHPLSYIMEAADDVSYCIADLEDAVEKDILTIEELYDRLRENWGTGAEKDIFAKTIERAYKERERFQWRSHDDQFFMNLRVYTVGQMVPHAALRFIDNLPEIYTGSFNQALLEDDSPQNRLLGIFKHVALKHVFNHHEVEQLELQGDRVIRGLLDIYSPLLDMPYQDFSQLVSADTHKRYPIETRLYHKLSSKHCLAYREAVTELDGVAEPERIIREYYYRARLIQDYISGMTDLYAYDEYRMLMAAD	not soluble
MMNKKEARTLIKERRMNLSKEYIDVASDKIFEKLLQNEDFKNVKTVMSYMDFKNEVKTDRINTFIKNSGKILVLPKVVDKETMIVIEDKNQYIVSPFGNKEPDGEEYKGSIDVIITPGVAFDRDKNRVGFGRGYYDRFFVKQPNAKKIAIAFEKQIIDEGIETDKYDKKVDILITEDEIIKLEHHHHHH	soluble

Reference: the DeepSol protein solubility set
